Target: fluorescein labeled GST-PKM1 (UniProt P14618)
Assay: MST; 40 nM fluorescein-labelled PKM1 with salt-washed ribosomes titrated from 0 to about 1.5 μM in PBS + 5 mM MgCl2, room temperature; three batches of ribosomes fitted globally to a 1:1 model; binding not fully saturated

Chain of UniProt P14618 (P14618 other isoform, or with tags, fused parts or gaps): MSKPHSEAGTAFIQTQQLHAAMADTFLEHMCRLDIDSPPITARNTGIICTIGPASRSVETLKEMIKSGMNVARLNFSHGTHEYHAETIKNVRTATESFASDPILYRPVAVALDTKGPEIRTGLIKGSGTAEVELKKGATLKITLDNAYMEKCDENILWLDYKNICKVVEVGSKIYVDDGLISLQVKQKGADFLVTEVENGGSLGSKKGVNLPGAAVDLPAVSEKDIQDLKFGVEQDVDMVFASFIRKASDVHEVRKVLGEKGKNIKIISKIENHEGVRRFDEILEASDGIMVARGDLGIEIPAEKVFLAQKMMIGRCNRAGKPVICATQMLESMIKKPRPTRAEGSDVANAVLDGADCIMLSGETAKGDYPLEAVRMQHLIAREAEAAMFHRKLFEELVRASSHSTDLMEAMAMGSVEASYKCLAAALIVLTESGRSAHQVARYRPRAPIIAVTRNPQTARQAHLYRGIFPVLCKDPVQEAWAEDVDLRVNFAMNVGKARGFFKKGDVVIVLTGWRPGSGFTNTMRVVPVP

Question: With “salt-washed ribosomes isolated from HEK293F cells (from UniProt P36578 1-427) (complex)” as the substance, how does the Kd read?
Answer: Its Kd is 900 nM.

Source: article PMC10325899
